T1: MSRV complete ENV protein (ENV-T), recombinant from E. coli (MSRV (Multiple Sclerosis associated …))
T1 construct: also called ENV-T 7A; His-ENV-T
T1 chain: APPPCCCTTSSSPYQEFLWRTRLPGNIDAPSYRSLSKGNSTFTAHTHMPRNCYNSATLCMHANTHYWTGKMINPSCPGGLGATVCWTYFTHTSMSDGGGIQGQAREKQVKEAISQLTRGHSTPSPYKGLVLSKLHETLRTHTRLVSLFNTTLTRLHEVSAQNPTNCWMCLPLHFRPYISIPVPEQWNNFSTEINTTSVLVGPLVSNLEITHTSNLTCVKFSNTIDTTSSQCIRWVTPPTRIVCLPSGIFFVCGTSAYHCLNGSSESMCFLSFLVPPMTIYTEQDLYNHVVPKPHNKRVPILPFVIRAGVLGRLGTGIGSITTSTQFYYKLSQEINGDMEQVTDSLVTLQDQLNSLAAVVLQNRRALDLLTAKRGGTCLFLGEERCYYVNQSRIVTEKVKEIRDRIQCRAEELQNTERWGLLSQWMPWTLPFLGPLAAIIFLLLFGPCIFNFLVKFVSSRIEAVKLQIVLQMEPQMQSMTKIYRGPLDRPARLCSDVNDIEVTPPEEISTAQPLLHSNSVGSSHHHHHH


Assays:
[1] = target: T1, MSRV complete ENV protein (ENV-T), …; experiment: ELISA; coated ENV-T 7A, concentration cell blank (top of series, 1 µg/ml per paragraph 198); ligand 1 microgram
Description: (§1) II-1d Direct ELISA on Microplates Coated with ENV Antigen (ENV-T or ENV-SU as Described Above) [0159] Microwells were coated with 100 μl per well of ENV antigen diluted in 50 mM Sodium Bicarbonate, pH 9.6. Plate were sealed and incubated 2 hours at 37° C. under light agitation. [0160] Microwells were washed 4 times with 250 μl per well of PBS (Phosphate Buffer Saline). After the last, plates were inverted and blotted on absorbent paper to remove any residual buffer. [0161] 100 μl per well of detection antibody according to the present invention (GNbAC1 or its Fab fragment) diluted in PBS+BSA 1% (PBS with 1% of Bovine Serum Albumin) were added. Plate were sealed and incubated 1 hour at room temperature under light agitation. […] Microwells were washed 4 times with 250 μl per well of PBS. After the last, plates were inverted and blotted on absorbent paper to remove any residual buffer. [0163] […] Plate were sealed and incubated 1 hour at room temperature under light agitation. [0164] Microwells were washed 6 times with 250 μl per well of PBS. After the last, plates were inverted and blotted on absorbent paper to remove any residual buffer. [0165] 100 μl par well of Substrate Solution (1 tablet of o-Phenylenediamine (OPD) diluted in 10 ml of 0.05M Phosphate Citrate Buffer pH5+10 μl H2O2 30%, prepared at the last moment) were added. Plates were incubated 30 min at room temperature in the dark. […] 50 μl per well of Stop Solution 2N H2SO₄ were added. [0167] The absorbance was read at 490 nm within 30 minutes of stopping reaction.
(§2) Env-T antigen is coated onto microtiter ELISA plate wells with serial dilutions ranging from 1 μg/ml to about 0.01 μg/ml.

[2] = target: T1, MSRV complete ENV protein (ENV-T), …; experiment: ELISA; ENV-T 7A 1 ug/ml coated; mAb 0.0156 ug/ml
Description: (§3) Protocol: Incubation 2 h at 37° C. […] Revelation is made by adding OPD substrate and reading optic density with a spectrophotometer after 30 min (Washing steps with PBS are performed between every step).

[3] = target: T1, MSRV complete ENV protein (ENV-T), …; experiment: ELISA; ENV-T 7A 1 ug/ml coated; mAb concentration cell blank (top of series)
Description: as §3

[4] = target: T1, MSRV complete ENV protein (ENV-T), …; experiment: ELISA; coated ENV-T 7A 0.03125; ligand 1 microgram
Description: as §1, §2

[5] = target: T1, MSRV complete ENV protein (ENV-T), …; experiment: ELISA; coated ENV-T 7A 0.25; ligand 1 microgram
Description: as §1, §2

[6] = target: T1, MSRV complete ENV protein (ENV-T), …; experiment: ELISA; ENV-T 7A 1 ug/ml coated; mAb 0.0625 ug/ml
Description: as §3

[7] = target: T1, MSRV complete ENV protein (ENV-T), …; experiment: ELISA; coated ENV-T 7A 0.0078; ligand 1 microgram
Description: as §1, §2

[8] = target: T1, MSRV complete ENV protein (ENV-T), …; experiment: ELISA; ENV-T 7A 1 ug/ml coated; mAb 0.25 ug/ml
Description: as §3

[9] = target: T1, MSRV complete ENV protein (ENV-T), …; experiment: ELISA; ENV-T 7A 1 ug/ml coated; mAb 0.03125 ug/ml
Description: as §3

[10] = target: T1, MSRV complete ENV protein (ENV-T), …; experiment: ELISA; ENV 0.25 ug/ml coated; mAb 1 ug/ml
Description: as §3

[11] = target: T1, MSRV complete ENV protein (ENV-T), …; experiment: ELISA; ENV 1 ug/ml coated; mAb 1 ug/ml
Description: as §3

[12] = target: T1, MSRV complete ENV protein (ENV-T), …; experiment: ELISA; coated ENV-T 7A 0.125; ligand 1 microgram
Description: as §1, §2

[13] = target: T1, MSRV complete ENV protein (ENV-T), …; experiment: cell-based or functional assay

Row | Binder | optical density [1] [OD] | optic density [2] [OD] | optic density [3] [OD] | optical density [4] [OD] | optical density [5] [OD] | optic density [6] [OD] | optical density [7] [OD] | optic density [8] [OD] | optic density [9] [OD] | optic density [10] [OD] | optic density [11] [OD] | optical density [12] [OD] | IL-6 at 24 h in PBMC culture with ENV-T 0.1 ug/ml, MAb ratio 10/1 (no antibody: 4363) [13]
1 | GNbAC1 murine monoclonal antibody (IgG1/kappa) (antibody, V domains shown, Murine IgG1/kappa from hybridoma; also called murine IgG1; muIgG) VH: QVQLQQSGAELVRPGAPVTLSCKASGYTFTDYEMHWVKQTPVHGLEWIGAVAPETGGTAYNQKFKGKATLTAAKSSSTAYMELRSLTSEDSAVYYCTSTVVPFAYWGQGTLVTVSA VL: QIVLTQSPAIMSASPGEKVTISCSASSSVSYMYWYQQKPGSSPKAWIYRTSNLASGVPGRFSGSGSGTSYSLTISSMEAEDAATYYCQQYQSLPLTFGSGTKLEIK | 3 | 0.166 | 2 | 1.34 | 2.84 | 0.585 | 0.625 | 1.21 | 0.406 | 1.42 | 2.22 | 2.29 | –
2 | Chimeric GNb AC1 IgG4 (human IgG4 constant regions with murine VH and VL) (antibody, V domains shown, also called GNbAC1 chimeric IgG4; GNbAC1-IgC4) VH: QVQLQQSGAELVRPGASVTLSCKASGYTFTDYEMHWVKQTPVHGLEWIGAVAPETGGTAYNQKFKGKATLTAAKSSSTAYMELRSLTSEDSAVYYCTSTVVPFAYWGQGTLVTVSA VL: QIVLTQSPAIMSASPGEKVTISCSASSSVSYMYWYQQKPGSSPKAWIYRTSNLASGVPGRFSGSGSGTSYSLTISSMEAEDAATYYCQQYQSLPLTFGSGTKLEIKR | 3 | 0.777 | 2.38 | 1.37 | 2.52 | 1.66 | 0.692 | 2.17 | 1.26 | 2.3 | 2.67 | 1.99 | 2270
3 | Chimeric GNb AC1 IgG1 (human IgG1 constant regions with murine VH and VL) (antibody, V domains shown, Human IgG1 heavy constant region and human kappa constant region, made in CHO cells; also called GNbAC1 chimeric IgG1; Ligand in human IgG1) VH: QVQLQQSGAELVRPGAPVTLSCKASGYTFTDYEMHWVKQTPVHGLEWIGAVAPETGGTAYNQKFKGKATLTAAKSSSTAYMELRSLTSEDSAVYYCTSTVVPFAYWGQGTLVTVSA VL: QIVLTQSPAIMSASPGEKVTISCSASSSVSYMYWYQQKPGSSPKAWIYRTSNLASGVPGRFSGSGSGTSYSLTISSMEAEDAATYYCQQYQSLPLTFGSGTKLEIK | 3 | 1.27 | 2.54 | 1.56 | 2.89 | 2.51 | 0.815 | 2.64 | 1.98 | 2.27 | 2.52 | 2.39 | –
